# B1: Azoarcus group I ribozyme (parent)
# chain: GUGCCUUGCGCCGGGAAACCACGCAAGGGAUGGUGUCAAAUUCGGCGAAACCUAAGCGCCCGCCCGGGCGUAUGGCAACGCCGAGCCAAGCUUCGGCGCCUGCGCCGAUGAAGGUGUAGAGACUAGACGGCACCCACCUAAGGCAAACGCUAUGGUGAAGGCAUAGUCCAGGGAGUGGCGAAAGUCACACAAACCGG
# Variants of: B1
# Experiment: reverse-splicing fitness (ratio to wild type); higher = more active; in vitro selection; Mg2+ level not given
# Outline: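 An in vitro group I ribozyme library with randomized positions was T7-transcribed and gel-purified. In triplicate, 10 pmol RNA in EPPS pH 7.5 was reacted with 50 pmoles of a 30-nt RNA substrate for 1 h at 37 °C across several added MgCl2 levels (1–48 mM), then stopped with EDTA. Products were reverse transcribed from a substrate-complementary primer, PCR-amplified and sequenced (HiSeq 4000). Fitness is a variant's read proportion after selection over that before, normalised to wild type.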
row,Variant,reverse-splicing fitness
1,C82G A111C A120U A145U C169A U176G,0.00195
2,C82G A111C A120U A145U C169A U176A,0.00261
3,C82G A111C A120U A145U C169A U176C,0.00242
4,C82G A111C A120U A145G C150A C169U U176G,0.00259
5,C82G A111C A120U A145G C150A C169U U176C,0.00449
6,C82G A111C A120U A145G C150A C169U U176A,0.00632
7,C82G A111C A120U A145U C150U U176A,0.00941
8,C82G A111C A120U A145U C150U U176G,0.00386
9,C82G A111C A120U A145U C150U U176C,0.013
10,C82G A111C A120U A145G C169G U176G,0.00194
11,C82G A111C A120U A145G C169G U176C,0.00363
12,C82G A111C A120U A145G C169G U176A,0.00387
13,C82G A111C A120U A145U C169G U176G,0.00162
14,C82G A111C A120U A145U C169G U176A,0.00269
15,C82G A111C A120U A145U C169G U176C,0.00239
16,C82G A111C A120U A145G C150G C169A U176G,0.00544
17,C82G A111C A120U A145G C150G C169A U176A,0.0121
18,C82G A111C A120U A145G C150G C169A U176C,0.00861
19,C82G A111C A120U A145G C150G C169U U176C,0.00748
20,C82G A111C A120U A145G C150G C169U U176A,0.00988
21,C82G A111C A120U A145G C150G C169U U176G,0.00438

row,Variant,reverse-splicing fitness
1,C82G A111C A120U A145G C150A C169A,0.00787
2,C82G A111C A120U A145G C150A C169G,0.0054
3,C82G A111C A120U A145G C150A C169U,0.00514
4,C82G A111C A120U A145G C150A C169A U176C,0.00453
5,C82G A111C A120U A145G C150A C169A U176G,0.0032
6,C82G A111C A120U A145G C150A C169A U176A,0.00791
7,C82G A111C A120U C150U,0.0243
8,C82G A111C A120U C150G,0.00766
9,C82G A111C A120U C150A,0.00807
10,C82G A111C A120U A145G C150G C169A,0.00854
11,C82G A111C A120U A145G C150G C169U,0.00758
12,C82G A111C A120U A145G C150G C169G,0.00703
13,C82G A111C A120U A145G C150G U176G,0.00447
14,C82G A111C A120U A145G C150G U176C,0.009
15,C82G A111C A120U A145G C150G U176A,0.00628
16,C82G A111C A120U C150A U176A,0.00581
17,C82G A111C A120U C150A U176C,0.00693
18,C82G A111C A120U C150A U176G,0.00333
19,C82G A111C A120U A145G C150U C169A U176A,0.00776
20,C82G A111C A120U A145G C150U C169A U176C,0.00436
21,C82G A111C A120U A145G C150U C169A U176G,0.00301

row,Variant,reverse-splicing fitness
1,C82G A111C A120U C150G C169G,0.00669
2,C82G A111C A120U C150G C169A,0.00763
3,C82G A111C A120U C150G C169U,0.00609
4,C82G A111C A120U A145U U176A,0.0115
5,C82G A111C A120U A145U U176G,0.00533
6,C82G A111C A120U A145U U176C,0.0197
7,C82G A111C A120U A145G,0.0506
8,C82G A111C A120U A145U,0.0481
9,C82G A111C A120U A145C C169U U176G,0.00214
10,C82G A111C A120U A145C C169U U176C,0.00289
11,C82G A111C A120U A145G C150A U176A,0.00773
12,C82G A111C A120U A145G C150A U176G,0.00353
13,C82G A111C A120U A145G C150A U176C,0.0086
14,C82G A111C A120U A145U C150U C169G U176C,0.00346
15,C82G A111C A120U A145U C150U C169G U176G,0.00273
16,C82G A111C A120U A145U C150U C169G U176A,0.00347
17,C82G A111C A120U A145U C169U U176C,0.00318
18,C82G A111C A120U A145U C169U U176A,0.00319
19,C82G A111C A120U A145U C169U U176G,0.00187
20,C82G A111C A120U A145G C150U,0.0408
21,C82G A111C A120U A145G C150A,0.0106

row,Variant,reverse-splicing fitness
1,C82G A111C A120U A145G C150G,0.0111
2,C82G A111C A120U A145U C150G C169A,0.00457
3,C82G A111C A120U A145U C150G C169U,0.00326
4,C82G A111C A120U A145U C150G C169G,0.00414
5,C82G A111C A120U A145U C150A C169A U176C,0.00267
6,C82G A111C A120U A145U C150A C169A U176G,0.00195
7,C82G A111C A120U A145U C150A C169A U176A,0.00336
8,C82G A111C A120U A145G C169U,0.00527
9,C82G A111C A120U A145G C169G,0.00473
10,C82G A111C A120U A145G C169A,0.00335
11,C82G A111C A120U A145U C150G C169A U176C,0.00308
12,C82G A111C A120U A145U C150G C169A U176A,0.0036
13,C82G A111C A120U A145U C150G C169A U176G,0.00276
14,C82G A111C A120U C150G C169G U176G,0.00302
15,C82G A111C A120U C150G C169G U176A,0.0049
16,C82G A111C A120U C150G C169G U176C,0.00379
17,C82G A111C A120U A145G C150U C169U,0.00642
18,C82G A111C A120U A145G C150U C169G,0.00657
19,C82G A111C A120U A145G C150U C169A,0.00785
20,C82G A111C A120U A145U C150A C169G,0.00295
